How the values were obtained:
[1] = target: ^MsmClpP1 R168A, purified (Mycobacterium smegmatis); assay: AUC; oligomeric state of each purified protein alone, in the absence of z-LL (Fig. S4)
[2] = target: ^MsmClpP1 Y110A (Mycobacterium smegmatis); assay: native gel or EMSA; 5 µg of purified protein on 4-16% Native-PAGE Novex Bis-Tris gels, stained with Coomassie Brilliant Blue R250
[3] = target: ^MsmClpP1, wild type, purified (Mycobacterium smegmatis); assay: crystal structure; ^MsmClpP1 crystallised by vapor diffusion at 20 °C from sodium malonate pH 6.6-6.8; one heptamer in the asymmetric unit, tetradecamer from crystallographically related heptamers; 2.0 Å
[4] = target: ^MsmClpP1, wild type, purified (Mycobacterium smegmatis); assay: AUC; oligomeric state of each purified protein alone, in the absence of z-LL (Fig. S4)
[5] = target: ^MsmClpP1, wild type, purified (Mycobacterium smegmatis); assay: native gel or EMSA; 5 µg of purified protein on 4-16% Native-PAGE Novex Bis-Tris gels, stained with Coomassie Brilliant Blue R250
[6] = target: ^MsmClpP2 R189A, purified (Mycobacterium smegmatis); assay: AUC; oligomeric state of each purified protein alone, in the absence of z-LL (Fig. S4)
[7] = target: ^MsmClpP2, wild type, purified (Mycobacterium smegmatis); assay: as above

^MsmClpP1 R168A, purified (enzyme) was tested, and the stoichiometry N [1] was 7.
^MsmClpP1 Y110A (enzyme) was tested, and the stoichiometry N [2] was 14.
^MsmClpP1, wild type, purified (enzyme) was tested, and the stoichiometry N [3] was 14, the stoichiometry N [4] was 7 and the stoichiometry N [5] was 14.
^MsmClpP2 R189A, purified (enzyme) showed a stoichiometry N [6] of 7.
Work on ^MsmClpP2, wild type, purified (enzyme) yielded a stoichiometry N [7] of 7.
